Assay results: paper PMC10187677 (RNA, 2023)

Legend:
Test in all cases: pull-down
[1] = biological target: T1, His6-GIGYF1 GYF domain F533E (human, UniProt O75420 470-538, F533E)
T1 sequence (looked up): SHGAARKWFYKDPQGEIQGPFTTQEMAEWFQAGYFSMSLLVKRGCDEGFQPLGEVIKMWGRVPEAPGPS

[2] = biological target: T2, His6-GIGYF2 GYF domain (residues 529-597) (human, UniProt Q6Y7W6 529-597)
T2 sequence (looked up): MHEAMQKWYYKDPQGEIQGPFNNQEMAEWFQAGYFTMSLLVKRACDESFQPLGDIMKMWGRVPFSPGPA

[3] = biological target: T3, His6-GIGYF1 GYF domain (residues 470-538) (human, UniProt O75420 470-538)
T3 sequence (looked up): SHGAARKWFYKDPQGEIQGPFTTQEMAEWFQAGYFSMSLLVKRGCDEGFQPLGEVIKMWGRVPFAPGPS

[4] = biological target: T4, His6-GIGYF2 GYF domain F592E (human, UniProt Q6Y7W6 529-597, F592E)
T4 sequence (looked up): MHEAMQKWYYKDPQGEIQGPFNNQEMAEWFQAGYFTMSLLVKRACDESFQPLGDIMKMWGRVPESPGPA

Measured: binding result

GWVPPPPGFAP (peptide, UniProt P26651 68-78, looked up) [GST-tagged fragment of the first tetra-proline region of TTP (residues 68-78)]
binds: all assays above
